Assay results from patent publication US20250333523A1 (Alector, published 2025).
Like-named read-outs stand apart in the source and are kept apart here.

Legend:
[1] = target: T1, Avi/His-HuIL18BPa (recombinant human IL-18BP isoform A with Avi and poly-His tags) (human, biotinylated with BirA on the Avi tag in some assays); assay: ELISA, coated IL-18BP
T1 construct: also called human IL-18BP-Avi-His
T1 chain: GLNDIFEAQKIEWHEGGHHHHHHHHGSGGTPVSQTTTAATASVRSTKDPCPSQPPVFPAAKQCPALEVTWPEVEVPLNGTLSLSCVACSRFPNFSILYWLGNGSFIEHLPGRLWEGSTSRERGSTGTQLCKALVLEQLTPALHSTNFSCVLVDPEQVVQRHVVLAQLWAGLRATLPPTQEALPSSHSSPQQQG

[2] = target: T2, Avi/HisMsIL18BPd (recombinant mouse IL-18BP with Avi and poly-His tags) (mouse, biotinylated with BirA on the Avi tag in some assays); assay: ELISA, coated IL-18BP
T2 construct: also called murine IL-18BP; IL-18BP-Avi-His (mouse)
T2 chain: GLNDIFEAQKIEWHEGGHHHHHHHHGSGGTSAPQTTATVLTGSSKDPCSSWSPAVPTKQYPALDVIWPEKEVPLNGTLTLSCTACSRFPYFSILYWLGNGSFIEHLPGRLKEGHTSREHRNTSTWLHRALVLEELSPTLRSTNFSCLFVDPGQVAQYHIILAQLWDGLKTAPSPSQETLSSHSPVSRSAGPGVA

[3] = target: T1, Avi/His-HuIL18BPa (recombinant human …); assay: cell-based or functional assay
[4] = target: T2, Avi/HisMsIL18BPd (recombinant mouse …); assay: cell-based or functional assay
[5] = target: T1, Avi/His-HuIL18BPa (recombinant human …); assay: SPR Carterra LSA, IgG immobilized
[6] = target: T1, Avi/His-HuIL18BPa (recombinant human …); assay: blocking ELISA, competitor human IL-18
[7] = target: T3, mouse IL-18BPd-human IgG Fc (R&D Systems, Cat. #122-BP-100) (mouse; human, UniProt Q9Z0M9 29-193); assay: blocking ELISA, competitor mouse IL-18
T3 construct: Bought; also called mouse IL-18BPd-Fc Chimera
T3 sequence (looked up): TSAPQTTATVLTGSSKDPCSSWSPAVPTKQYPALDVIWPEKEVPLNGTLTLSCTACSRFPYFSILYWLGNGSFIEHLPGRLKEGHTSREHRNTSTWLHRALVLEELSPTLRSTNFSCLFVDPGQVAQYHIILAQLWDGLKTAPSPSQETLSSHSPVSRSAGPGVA

[8] = target: T1, Avi/His-HuIL18BPa (recombinant human …); assay: cell-based or functional assay
[9] = target: T2, Avi/HisMsIL18BPd (recombinant mouse …); assay: cell-based or functional assay
[10] = target: T1, Avi/His-HuIL18BPa (recombinant human …); assay: SPR Biacore T200, IgG captured on Protein A/G
[11] = target: T4, His/Avi-CynoIL18BP (recombinant cynomolgus IL-18BP with His and Avi tags) (cynomolgus monkey); assay: SPR Biacore T200, IgG captured on Protein A/G
T4 construct: also called cynomolgus IL-18BP-Avi-His
T4 chain: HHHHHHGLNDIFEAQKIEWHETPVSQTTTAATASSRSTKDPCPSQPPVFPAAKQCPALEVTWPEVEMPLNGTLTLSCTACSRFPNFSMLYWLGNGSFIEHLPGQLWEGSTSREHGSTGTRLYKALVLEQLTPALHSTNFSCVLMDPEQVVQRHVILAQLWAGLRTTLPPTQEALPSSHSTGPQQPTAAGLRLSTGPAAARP

[12] = target: T4, His/Avi-CynoIL18BP (recombinant …); assay: ELISA, coated IL-18BP
[13] = target: T4, His/Avi-CynoIL18BP (recombinant …); assay: cell-based or functional assay
[14] = target: T4, His/Avi-CynoIL18BP (recombinant …); assay: SPR Carterra LSA, IgG immobilized
[15] = target: T4, His/Avi-CynoIL18BP (recombinant …); assay: blocking ELISA, competitor rhesus IL-18

B1: anti-IL18BP antibody BP-14 (antibody, human IgG1, V domains shown)
VH: QVQLVQSGAEVKKPGASVKVSCKASGYTFTGYYMHWVRQAPGQGLEWMGIINPRGGSTSHAQKFQGRVTMTRDTSTSTVYMELSSLRSEDTAVYYCARGLELHWFDPWGQGTLVTVSS
VL: DIQMTQSPSSLSASVGDRVTITCRASQNIRSWLAWYQQKPGKAPKLLIYAASSLQSGVPSRFSGSGSGTDFTLTISSLQPEDFATYYCQQANSFPYTFGQGTKLEIK
[1]
  ELISA binding ratio (fold-change over background): 36.3 fold over background
[2]
  ELISA binding ratio (fold-change over background): 45.1 fold over background
[3]
  EC50 of IFNγ release, human PBMC: 3.47 nM
  Fold change of IFNγ at 10 µg/ml vs baseline, human PBMC: 8.86 fold
[4]
  EC50 of IFNγ release, mouse splenocytes: 2.93 nM
  Fold change of IFNγ at 10 µg/ml vs baseline, mouse splenocytes: 3.49 fold
[5]
  Kd: 3.2 nM
[6]
  blocking ELISA signal normalized to isotype control (=1): 0.069 ratio to isotype control
[7]
  blocking ELISA signal normalized to isotype control (=1): 0.202 ratio to isotype control

B2: anti-IL-18BP antibody variant BP-04.25 (antibody, V domains shown)
VH: QVQLVQSGAEVKKPGASVKVSCKASGYTFTDYDMHWVRQAPGQGLEWMGIYSTYYGDVSYAQKFQGRVTMTRDKSTSTVYMELSSLRSEDTAVYYCARSGTYNYGTRESHALDYWGQGTLVTVSS
VL: DIQMTQSPSSVSASVGDRVTITCRASDNVYSNLAWYQQKPGKAPKLLIYGAISLADGVPSRFSGSGSGTDFTLTISSLQPEDFATYYCQHFWGNPYTFGQGTKLEIK
[8]
  EC50 of IFNγ release, human PBMCs: 5.05 nM
[9]
  EC50 of IFNγ release, mouse splenocytes: 28.9 nM
[10]
  Kd: 21 nM
  koff: 0.0061 s⁻¹
  kon: 300000 M⁻¹ s⁻¹
[11]
  Kd: 100 nM
  koff: 0.022 s⁻¹
  kon: 220000 M⁻¹ s⁻¹

B3: anti-IL-18BP antibody variant BP-04.28 (antibody, V domains shown)
VH: QVQLVQSGAEVKKPGASVKVSCKASGYTFTDYDMHWVRQAPGQGLEWMGIISTYYGDVSYAQKFQGRVTMTRDKSTSTVYMELSSLRSEDTAVYYCARSGTYYYGTRESHPLDYWGQGTLVTVSS
VL: DIQMTQSPSSVSASVGDRVTITCRASDNVYSNLAWYQQKPGKAPKLLIYGAISLADGVPSRFSGSGSGTDFTLTISSLQPEDFATYYCQHFWGNPYTFGQGTKLEIK
[8]
  EC50 of IFNγ release, human PBMCs: 71.2 nM
[9]
  EC50 of IFNγ release, mouse splenocytes: 134 nM
[10]
  Kd: 4.7 nM
  koff: 0.0019 s⁻¹
  kon: 410000 M⁻¹ s⁻¹
[11]
  Kd: 7.2 nM
  koff: 0.0023 s⁻¹
  kon: 330000 M⁻¹ s⁻¹

B4: anti-IL-18BP antibody variant BP-04.29 (antibody, V domains shown)
VH: QVQLVQSGAEVKKPGASVKVSCKASGYTFTDYDMHWVRQAPGQGLEWMGIISTYYGDVSYAQKFQGRVTMTRDKSTSTVYMELSSLRSEDTAVYYCARSGTYNYGTRESHALDYWGQGTLVTVSS
VL: DIQMTQSPSSVSASVGDRVTITCRASDNVYSNLAWYQQKPGKAPKLLIYGAISLADGVPSRFSGSGSGTDFTLTISSLQPEDFATYYCQHFWGNPYTFGQGTKLEIK
[8]
  EC50 of IFNγ release, human PBMCs: 3.53 nM
[9]
  EC50 of IFNγ release, mouse splenocytes: 45.5 nM
[10]
  Kd: 16 nM
  koff: 0.0062 s⁻¹
  kon: 390000 M⁻¹ s⁻¹
[11]
  Kd: 32 nM
  koff: 0.011 s⁻¹
  kon: 340000 M⁻¹ s⁻¹

B5: anti-IL18BP antibody BP-01 (antibody, human IgG1, V domains shown)
VH: QVQLQQSGPEVVRPGVSVKISCKGSGYTFTDFAMYWVKQSHAKSLEWIGVISTDNGDTSYNQKFKGKATMTVDKSSSTAYMELDRLTSEDSAIYYCARSRGPFDYWGQGTALTVSS
VL: DIVMTQSHKFKSTSVGDRVNITCKASQDVGTAVAWYQQKPGQSPKLLIYWASTRHIGVPDRFTGSGSGTDFTLTIRNVQSEDLADYFCQRYSSYPWTFGGGTKLEIK
[1]
  ELISA binding ratio (fold-change over background): 40.7 fold over background
[2]
  ELISA binding ratio (fold-change over background): 36.7 fold over background
[12]
  ELISA binding ratio (fold-change over background): 47.4 fold over background
[3]
  EC50 of IFNγ release, human PBMC: 0.75 nM
  Fold change of IFNγ at 10 µg/ml vs baseline, human PBMC: 14.9 fold
[4]
  EC50 of IFNγ release, mouse splenocytes: 8.36 nM
  Fold change of IFNγ at 10 µg/ml vs baseline, mouse splenocytes: 1.65 fold
[13]
  % of Max Gamma, human NK cells: 52.2%
  EC50 of IFNγ release, human NK cells: 12.5 nM
[14]
  Kd: 12.1 nM
[6]
  blocking ELISA signal normalized to isotype control (=1): 0.076 ratio to isotype control
[7]
  blocking ELISA signal normalized to isotype control (=1): 0.316 ratio to isotype control
[15]
  blocking ELISA signal normalized to isotype control (=1): 0.795 ratio to isotype control

B6: anti-IL18BP antibody BP-09 (antibody, human IgG1, V domains shown)
VH: QVQLQQSGAELVRPGASVTLSCKASGYRFTDYAMHWVKQTPVHGLQWIGIIDPETGDTAFNQKFKGKATLTADKSSSTAYMELSSLTSEDSAVYYCTRPRGAMDYWGQGTSVTVSS
VL: DIVMTQSHKFMSTSGGDRVSITCKASQDVGTAVAWYQQKPGISPKLLIYWASTRHTGVPDRFTGSGSGTDFTLAISNVQSEDLADYFCQQYSSHPYTFGGGTKLEIK
[1]
  ELISA binding ratio (fold-change over background): 44.4 fold over background
[2]
  ELISA binding ratio (fold-change over background): 32.7 fold over background
[12]
  ELISA binding ratio (fold-change over background): 44.9 fold over background
[3]
  EC50 of IFNγ release, human PBMC: 1.41 nM
  Fold change of IFNγ at 10 µg/ml vs baseline, human PBMC: 15.4 fold
[4]
  EC50 of IFNγ release, mouse splenocytes: 426 nM
  Fold change of IFNγ at 10 µg/ml vs baseline, mouse splenocytes: 2.88 fold
[13]
  % of Max Gamma, human NK cells: 46.6%
  EC50 of IFNγ release, human NK cells: 51.7 nM
[5]
  Kd: 2.01 nM
[14]
  Kd: 1.4 nM
[15]
  blocking ELISA signal normalized to isotype control (=1): 0.315 ratio to isotype control

B7: anti-IL18BP antibody BP-03 (antibody, human IgG1, V domains shown)
VH: EVQLQQSGPELVKPGASVKIPCKASGYTFTDYNMDWVKQSHGKSLEWIGNINTDNGGTVYNQKFKGKATLTVDQSSSTAYMELRSLTSEDTAVYYCARSDTTVVASRYYAMDYWGQGTSVTVSS
VL: DIVLTQSPASLAMSLGKRATISCRASESVSIIGTNLIHWYQQKPGQPPKLLIYHASNLETGVPARFSGSGSRTDFTLTIDPVEEDDVAIYYCLQSRKIPPTFGGGTKLEIK
[1]
  ELISA binding ratio (fold-change over background): 41.9 fold over background
[2]
  ELISA binding ratio (fold-change over background): 41.6 fold over background
[12]
  ELISA binding ratio (fold-change over background): 36.5 fold over background
[3]
  EC50 of IFNγ release, human PBMC: 1.14 nM
  Fold change of IFNγ at 10 µg/ml vs baseline, human PBMC: 11.3 fold
[4]
  EC50 of IFNγ release, mouse splenocytes: 4.49 nM
  Fold change of IFNγ at 10 µg/ml vs baseline, mouse splenocytes: 5.93 fold
[5]
  Kd: 4.1 nM
[14]
  Kd: 2.34 nM
[6]
  blocking ELISA signal normalized to isotype control (=1): 0.151 ratio to isotype control
[7]
  blocking ELISA signal normalized to isotype control (=1): 0.157 ratio to isotype control
[15]
  blocking ELISA signal normalized to isotype control (=1): 0.996 ratio to isotype control

B8: anti-IL18BP antibody BP-07 (antibody, human IgG1, V domains shown)
VH: EVQLQQSGPELVKPGASVKISCRASGFTITDYNMDWVRQSHGKSLEWIGNINLNNGGSIYNQKFKGKATLTIDKSSSTAYMELRSLTSEDTAVYYCARSDTTVVASRYYAMDYWGQGTSVTVSS
VL: DIVLTQSPASLAMSLGKRATISCRASESVSIIGTNLIHWYQQKPGQPPKLLIYHASNLETGVPVRFSGSGSRTDFTLTIDPVEEDDVAIYYCLQSRKIPPTFGGGTKLEIK
[1]
  ELISA binding ratio (fold-change over background): 38.5 fold over background
[2]
  ELISA binding ratio (fold-change over background): 39.3 fold over background
[12]
  ELISA binding ratio (fold-change over background): 31.1 fold over background
[3]
  EC50 of IFNγ release, human PBMC: 1.66 nM
  Fold change of IFNγ at 10 µg/ml vs baseline, human PBMC: 16.6 fold
[4]
  EC50 of IFNγ release, mouse splenocytes: 8.16 nM
  Fold change of IFNγ at 10 µg/ml vs baseline, mouse splenocytes: 2.78 fold
[5]
  Kd: 2.7 nM
[6]
  blocking ELISA signal normalized to isotype control (=1): 0.147 ratio to isotype control
[7]
  blocking ELISA signal normalized to isotype control (=1): 0.156 ratio to isotype control
[15]
  blocking ELISA signal normalized to isotype control (=1): 0.999 ratio to isotype control
